Laboratory results as given in PMC9482650, “Quantitative fragmentomics allow affinity mapping of interactomes” (Nature Communications, 2022).

T1: APBA2_2, Q99767
T1 sequence (Q99767 654-744, limits assumed, looked up): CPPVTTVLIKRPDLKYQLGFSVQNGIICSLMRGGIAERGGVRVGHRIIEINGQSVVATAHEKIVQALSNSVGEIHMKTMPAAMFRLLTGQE

T2: ARHGAP21, Q5T5U3
T2 sequence (Q5T5U3 45-169, limits assumed, looked up): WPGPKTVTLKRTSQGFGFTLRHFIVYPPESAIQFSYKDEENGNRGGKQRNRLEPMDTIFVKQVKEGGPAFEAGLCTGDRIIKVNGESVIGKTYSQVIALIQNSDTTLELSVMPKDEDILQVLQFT

T3: HTRA4, P83105
T3 sequence (P83105 378-476, limits assumed, looked up): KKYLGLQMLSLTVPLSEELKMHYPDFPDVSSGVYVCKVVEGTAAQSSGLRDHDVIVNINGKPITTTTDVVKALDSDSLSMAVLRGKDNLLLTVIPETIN

T4: LIN7C, Q9NUP9
T4 sequence (Q9NUP9 88-185, limits assumed, looked up): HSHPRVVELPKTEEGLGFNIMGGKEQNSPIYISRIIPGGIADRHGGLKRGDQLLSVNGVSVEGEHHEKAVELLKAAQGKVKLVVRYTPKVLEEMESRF

T5: LNX2_2, Q8N448
T5 sequence (Q8N448 334-432, limits assumed, looked up): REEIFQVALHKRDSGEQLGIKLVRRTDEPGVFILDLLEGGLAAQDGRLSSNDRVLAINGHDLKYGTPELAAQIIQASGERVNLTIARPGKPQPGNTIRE

T6: PDZRN3_1, Q9UPQ7
T6 sequence (Q9UPQ7 244-349, limits assumed, looked up): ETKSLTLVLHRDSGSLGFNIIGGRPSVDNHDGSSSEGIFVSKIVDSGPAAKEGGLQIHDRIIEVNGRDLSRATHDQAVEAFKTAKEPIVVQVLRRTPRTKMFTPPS


The binders below were run against T1, APBA2_2, Q99767 (assay: holdup assay). Conditions: plain residues with an end cap or a label only (N-terminal biotin on a linker: ado-ado).
Design: key: below the threshold = too weak to quantify, mostly under pKd 3.1 to 4

| Binder | pKd |
| --- | --- |
| TGPWKNETTV [ADGRA1, Q86SQ6] | below the threshold |

The binders below were run against T2, ARHGAP21, Q5T5U3 (assay: holdup assay). Conditions: plain residues with an end cap or a label only (N-terminal biotin on a linker: ado-ado).
Design: key: below the threshold = too weak to quantify, mostly under pKd 3.1 to 4

| Binder | pKd |
| --- | --- |
| TGPWKNETTV [ADGRA1, Q86SQ6] | below the threshold |

These binders were tested against DLG1_2, Q12959 (assay: holdup assay). Conditions: plain residues with an end cap or a label only (N-terminal biotin on a linker: ado-ado).
Design: key: below the threshold = too weak to quantify, mostly under pKd 3.1 to 4

Chain of DLG1_2, Q12959 (Q12959 314-412): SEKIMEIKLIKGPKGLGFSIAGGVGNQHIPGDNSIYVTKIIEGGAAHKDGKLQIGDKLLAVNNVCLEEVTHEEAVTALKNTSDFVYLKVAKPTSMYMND

| Binder | pKd |
| --- | --- |
| TGPWKNETTV [ADGRA1, Q86SQ6] | 5.33 |

Each binder was assayed against DLG2_3, Q15700 (assay: holdup assay). Conditions: plain residues with an end cap or a label only (N-terminal biotin on a linker: ado-ado).
Design: key: below the threshold = too weak to quantify, mostly under pKd 3.1 to 4

| Binder | pKd |
| --- | --- |
| TGPWKNETTV [ADGRA1, Q86SQ6] | 4.64 |

Each binder was assayed against DLG4_1, P78352 (assay: holdup assay). Conditions: plain residues with an end cap or a label only (N-terminal biotin on a linker: ado-ado).
Design: key: below the threshold = too weak to quantify, mostly under pKd 3.1 to 4

Chain of DLG4_1, P78352 (P78352 62-152): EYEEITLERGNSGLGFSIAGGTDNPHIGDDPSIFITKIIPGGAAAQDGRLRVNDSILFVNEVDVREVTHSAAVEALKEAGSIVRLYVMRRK

| Binder | pKd |
| --- | --- |
| TGPWKNETTV [ADGRA1, Q86SQ6] | 4.99 |

The binders below were run against DLG4_2, P78352 (assay: holdup assay). Conditions: plain residues with an end cap or a label only (N-terminal biotin on a linker: ado-ado).
Design: key: below the threshold = too weak to quantify, mostly under pKd 3.1 to 4

Chain of DLG4_2, P78352 (P78352 155-259): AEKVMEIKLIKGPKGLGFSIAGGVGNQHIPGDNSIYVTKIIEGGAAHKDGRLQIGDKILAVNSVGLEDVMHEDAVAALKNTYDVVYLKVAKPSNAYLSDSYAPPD

| Binder | pKd |
| --- | --- |
| TGPWKNETTV [ADGRA1, Q86SQ6] | 5.08 |

Each binder was assayed against DLG4_3, P78352 (assay: holdup assay). Conditions: plain residues with an end cap or a label only (N-terminal biotin on a linker: ado-ado).
Design: key: below the threshold = too weak to quantify, mostly under pKd 3.1 to 4

Chain of DLG4_3, P78352 (P78352 306-403): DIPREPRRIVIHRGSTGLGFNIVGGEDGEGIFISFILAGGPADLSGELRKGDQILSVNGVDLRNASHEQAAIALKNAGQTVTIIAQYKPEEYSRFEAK

| Binder | pKd |
| --- | --- |
| TGPWKNETTV [ADGRA1, Q86SQ6] | 4.61 |

Each binder was assayed against FRMPD3, Q5JV73 (assay: holdup assay). Conditions: plain residues with an end cap or a label only (N-terminal biotin on a linker: ado-ado).
Design: key: below the threshold = too weak to quantify, mostly under pKd 3.1 to 4

Chain of FRMPD3, Q5JV73 (Q5JV73 12-100): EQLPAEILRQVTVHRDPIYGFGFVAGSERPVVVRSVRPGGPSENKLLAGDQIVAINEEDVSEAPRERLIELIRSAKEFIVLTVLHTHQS

| Binder | pKd |
| --- | --- |
| TGPWKNETTV [ADGRA1, Q86SQ6] | below the threshold |

Each binder was assayed against FRMPD4, Q14CM0 (assay: holdup assay). Conditions: plain residues with an end cap or a label only (N-terminal biotin on a linker: ado-ado).
Design: key: below the threshold = too weak to quantify, mostly under pKd 3.1 to 4

Chain of FRMPD4, Q14CM0 (Q14CM0 67-160): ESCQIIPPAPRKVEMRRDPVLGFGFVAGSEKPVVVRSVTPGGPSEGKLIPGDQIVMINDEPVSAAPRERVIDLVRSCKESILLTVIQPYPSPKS

| Binder | pKd |
| --- | --- |
| TGPWKNETTV [ADGRA1, Q86SQ6] | below the threshold |

These binders were tested against GOPC, Q9HD26 (assay: holdup assay). Conditions: plain residues with an end cap or a label only (N-terminal biotin on a linker: ado-ado).
Design: key: below the threshold = too weak to quantify, mostly under pKd 3.1 to 4

| Binder | pKd |
| --- | --- |
| TGPWKNETTV [ADGRA1, Q86SQ6] | 3.69 |

These binders were tested against GORASP1, Q9BQQ3 (assay: holdup assay). Conditions: plain residues with an end cap or a label only (N-terminal biotin on a linker: ado-ado).
Design: key: below the threshold = too weak to quantify, mostly under pKd 3.1 to 4

Chain of GORASP1, Q9BQQ3 (Q9BQQ3 1-208): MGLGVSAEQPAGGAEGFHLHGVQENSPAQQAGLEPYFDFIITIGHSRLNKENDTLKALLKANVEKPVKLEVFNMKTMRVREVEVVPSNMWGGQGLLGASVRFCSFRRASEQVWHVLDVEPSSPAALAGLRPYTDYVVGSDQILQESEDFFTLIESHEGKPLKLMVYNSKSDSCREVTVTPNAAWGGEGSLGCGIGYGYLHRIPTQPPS

| Binder | pKd |
| --- | --- |
| TGPWKNETTV [ADGRA1, Q86SQ6] | below the threshold |

What follows are binders tested against GRASP, Q7Z6J2 (assay: holdup assay). Conditions: plain residues with an end cap or a label only (N-terminal biotin on a linker: ado-ado).
Design: key: below the threshold = too weak to quantify, mostly under pKd 3.1 to 4

Chain of GRASP, Q7Z6J2 (Q7Z6J2 96-193): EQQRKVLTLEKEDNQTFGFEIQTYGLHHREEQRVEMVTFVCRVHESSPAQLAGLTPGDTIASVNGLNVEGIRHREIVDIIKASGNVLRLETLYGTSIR

| Binder | pKd |
| --- | --- |
| TGPWKNETTV [ADGRA1, Q86SQ6] | below the threshold |

These binders were tested against GRIP2_4, Q9C0E4 (assay: holdup assay). Conditions: plain residues with an end cap or a label only (N-terminal biotin on a linker: ado-ado).
Design: key: below the threshold = too weak to quantify, mostly under pKd 3.1 to 4

Chain of GRIP2_4, Q9C0E4 (Q9C0E4 446-548): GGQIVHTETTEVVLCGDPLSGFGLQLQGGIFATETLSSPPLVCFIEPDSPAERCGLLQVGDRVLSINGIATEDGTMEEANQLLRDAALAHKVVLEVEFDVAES

| Binder | pKd |
| --- | --- |
| TGPWKNETTV [ADGRA1, Q86SQ6] | below the threshold |

These binders were tested against GRIP2_7, Q9C0E4 (assay: holdup assay). Conditions: plain residues with an end cap or a label only (N-terminal biotin on a linker: ado-ado).
Design: key: below the threshold = too weak to quantify, mostly under pKd 3.1 to 4

Chain of GRIP2_7, Q9C0E4 (Q9C0E4 934-1023): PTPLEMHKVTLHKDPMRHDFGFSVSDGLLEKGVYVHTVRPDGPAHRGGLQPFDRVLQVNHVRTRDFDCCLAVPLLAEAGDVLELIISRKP

| Binder | pKd |
| --- | --- |
| TGPWKNETTV [ADGRA1, Q86SQ6] | below the threshold |

These binders were tested against HTRA1, Q92743 (assay: holdup assay). Conditions: plain residues with an end cap or a label only (N-terminal biotin on a linker: ado-ado).
Design: key: below the threshold = too weak to quantify, mostly under pKd 3.1 to 4

Chain of HTRA1, Q92743 (Q92743 360-477): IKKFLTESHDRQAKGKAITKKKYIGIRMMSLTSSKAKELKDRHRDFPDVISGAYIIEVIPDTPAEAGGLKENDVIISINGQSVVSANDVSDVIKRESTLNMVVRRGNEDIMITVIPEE

| Binder | pKd |
| --- | --- |
| TGPWKNETTV [ADGRA1, Q86SQ6] | 4.26 |

The binders below were run against T3, HTRA4, P83105 (assay: holdup assay). Conditions: plain residues with an end cap or a label only (N-terminal biotin on a linker: ado-ado).
Design: key: below the threshold = too weak to quantify, mostly under pKd 3.1 to 4

| Binder | pKd |
| --- | --- |
| TGPWKNETTV [ADGRA1, Q86SQ6] | 3.92 |

The binders below were run against IL16_3, Q14005 (assay: holdup assay). Conditions: plain residues with an end cap or a label only (N-terminal biotin on a linker: ado-ado).
Design: key: below the threshold = too weak to quantify, mostly under pKd 3.1 to 4

Chain of IL16_3, Q14005 (Q14005 1107-1207): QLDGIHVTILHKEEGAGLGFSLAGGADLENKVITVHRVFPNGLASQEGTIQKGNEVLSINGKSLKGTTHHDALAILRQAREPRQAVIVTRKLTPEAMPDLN

| Binder | pKd |
| --- | --- |
| TGPWKNETTV [ADGRA1, Q86SQ6] | below the threshold |

What follows are binders tested against IL16_4, Q14005 (assay: holdup assay). Conditions: plain residues with an end cap or a label only (N-terminal biotin on a linker: ado-ado).
Design: key: below the threshold = too weak to quantify, mostly under pKd 3.1 to 4

Chain of IL16_4, Q14005 (Q14005 1229-1329): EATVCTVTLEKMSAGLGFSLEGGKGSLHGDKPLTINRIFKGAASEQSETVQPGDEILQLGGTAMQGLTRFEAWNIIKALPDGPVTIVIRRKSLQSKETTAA

| Binder | pKd |
| --- | --- |
| TGPWKNETTV [ADGRA1, Q86SQ6] | below the threshold |

What follows are binders tested against Inadl_4, Q8NI35 (assay: holdup assay). Conditions: plain residues with an end cap or a label only (N-terminal biotin on a linker: ado-ado).
Design: key: below the threshold = too weak to quantify, mostly under pKd 3.1 to 4

Chain of Inadl_4, Q8NI35 (Q8NI35 547-651): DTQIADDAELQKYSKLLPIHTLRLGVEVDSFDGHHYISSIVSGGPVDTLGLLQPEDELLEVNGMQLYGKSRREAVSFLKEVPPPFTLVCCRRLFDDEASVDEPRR

| Binder | pKd |
| --- | --- |
| TGPWKNETTV [ADGRA1, Q86SQ6] | below the threshold |

The binders below were run against Inadl_5, Q8NI35 (assay: holdup assay). Conditions: plain residues with an end cap or a label only (N-terminal biotin on a linker: ado-ado).
Design: key: below the threshold = too weak to quantify, mostly under pKd 3.1 to 4

Chain of Inadl_5, Q8NI35 (Q8NI35 673-780): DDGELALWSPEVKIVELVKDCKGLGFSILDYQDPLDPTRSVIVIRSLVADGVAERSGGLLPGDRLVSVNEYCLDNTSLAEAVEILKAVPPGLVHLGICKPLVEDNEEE

| Binder | pKd |
| --- | --- |
| TGPWKNETTV [ADGRA1, Q86SQ6] | below the threshold |

The binders below were run against Inadl_8, Q8NI35 (assay: holdup assay). Conditions: plain residues with an end cap or a label only (N-terminal biotin on a linker: ado-ado).
Design: key: below the threshold = too weak to quantify, mostly under pKd 3.1 to 4

Chain of Inadl_8, Q8NI35 (Q8NI35 1425-1530): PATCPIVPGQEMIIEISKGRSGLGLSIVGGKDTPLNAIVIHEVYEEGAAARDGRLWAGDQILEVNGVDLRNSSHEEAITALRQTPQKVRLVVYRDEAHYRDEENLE

| Binder | pKd |
| --- | --- |
| TGPWKNETTV [ADGRA1, Q86SQ6] | below the threshold |

Each binder was assayed against LAP2, Q96RT1 (assay: holdup assay). Conditions: plain residues with an end cap or a label only (N-terminal biotin on a linker: ado-ado).
Design: key: below the threshold = too weak to quantify, mostly under pKd 3.1 to 4

Chain of LAP2, Q96RT1 (Q96RT1 other isoform, or with tags, fused parts or gaps): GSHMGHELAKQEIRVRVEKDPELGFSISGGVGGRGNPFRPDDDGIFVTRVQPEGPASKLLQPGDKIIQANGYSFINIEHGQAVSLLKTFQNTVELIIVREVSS

| Binder | pKd |
| --- | --- |
| TGPWKNETTV [ADGRA1, Q86SQ6] | 3.84 |

What follows are binders tested against LDB3, O75112 (assay: holdup assay). Conditions: plain residues with an end cap or a label only (N-terminal biotin on a linker: ado-ado).
Design: key: below the threshold = too weak to quantify, mostly under pKd 3.1 to 4

Chain of LDB3, O75112 (O75112 1-94): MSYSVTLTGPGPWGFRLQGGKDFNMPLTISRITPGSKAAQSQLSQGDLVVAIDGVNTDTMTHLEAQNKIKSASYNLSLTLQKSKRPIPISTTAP

| Binder | pKd |
| --- | --- |
| TGPWKNETTV [ADGRA1, Q86SQ6] | below the threshold |

Each binder was assayed against T4, LIN7C, Q9NUP9 (assay: holdup assay). Conditions: plain residues with an end cap or a label only (N-terminal biotin on a linker: ado-ado).
Design: key: below the threshold = too weak to quantify, mostly under pKd 3.1 to 4

| Binder | pKd |
| --- | --- |
| TGPWKNETTV [ADGRA1, Q86SQ6] | 4.27 |

These binders were tested against LNX1_1, Q8TBB1 (assay: holdup assay). Conditions: plain residues with an end cap or a label only (N-terminal biotin on a linker: ado-ado).
Design: key: below the threshold = too weak to quantify, mostly under pKd 3.1 to 4

Chain of LNX1_1, Q8TBB1 (Q8TBB1 261-371): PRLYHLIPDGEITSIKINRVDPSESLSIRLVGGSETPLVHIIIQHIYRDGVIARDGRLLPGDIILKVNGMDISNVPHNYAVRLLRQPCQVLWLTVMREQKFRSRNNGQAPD

| Binder | pKd |
| --- | --- |
| TGPWKNETTV [ADGRA1, Q86SQ6] | below the threshold |

What follows are binders tested against T5, LNX2_2, Q8N448 (assay: holdup assay). Conditions: plain residues with an end cap or a label only (N-terminal biotin on a linker: ado-ado).
Design: key: below the threshold = too weak to quantify, mostly under pKd 3.1 to 4

| Binder | pKd |
| --- | --- |
| TGPWKNETTV [ADGRA1, Q86SQ6] | 4.93 |

These binders were tested against MAGI1_1, Q96QZ7 (assay: holdup assay). Conditions: plain residues with an end cap or a label only (N-terminal biotin on a linker: ado-ado).
Design: key: below the threshold = too weak to quantify, mostly under pKd 3.1 to 4

Chain of MAGI1_1, Q96QZ7 (Q96QZ7 1-106): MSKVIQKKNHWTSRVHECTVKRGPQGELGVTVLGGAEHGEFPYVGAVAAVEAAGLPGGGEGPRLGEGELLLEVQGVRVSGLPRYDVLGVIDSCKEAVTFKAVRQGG

| Binder | pKd |
| --- | --- |
| TGPWKNETTV [ADGRA1, Q86SQ6] | below the threshold |

The binders below were run against MAGI2_2, Q86UL8 (assay: holdup assay). Conditions: plain residues with an end cap or a label only (N-terminal biotin on a linker: ado-ado).
Design: key: below the threshold = too weak to quantify, mostly under pKd 3.1 to 4

Chain of MAGI2_2, Q86UL8 (Q86UL8 410-522): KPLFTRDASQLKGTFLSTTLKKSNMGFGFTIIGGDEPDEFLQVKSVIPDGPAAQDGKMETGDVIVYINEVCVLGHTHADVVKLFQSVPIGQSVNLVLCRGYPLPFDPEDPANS

| Binder | pKd |
| --- | --- |
| TGPWKNETTV [ADGRA1, Q86SQ6] | 5.17 |

The binders below were run against MAGI2_3, Q86UL8 (assay: holdup assay). Conditions: plain residues with an end cap or a label only (N-terminal biotin on a linker: ado-ado).
Design: key: below the threshold = too weak to quantify, mostly under pKd 3.1 to 4

Chain of MAGI2_3, Q86UL8 (Q86UL8 600-682): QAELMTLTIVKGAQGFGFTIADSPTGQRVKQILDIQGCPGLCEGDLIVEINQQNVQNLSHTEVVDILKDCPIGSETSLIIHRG

| Binder | pKd |
| --- | --- |
| TGPWKNETTV [ADGRA1, Q86SQ6] | 3.94 |

Each binder was assayed against MAGI2_5, Q86UL8 (assay: holdup assay). Conditions: plain residues with an end cap or a label only (N-terminal biotin on a linker: ado-ado).
Design: key: below the threshold = too weak to quantify, mostly under pKd 3.1 to 4

Chain of MAGI2_5, Q86UL8 (Q86UL8 915-1017): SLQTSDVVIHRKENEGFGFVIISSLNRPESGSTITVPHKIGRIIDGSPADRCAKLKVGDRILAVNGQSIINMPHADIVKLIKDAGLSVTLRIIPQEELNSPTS

| Binder | pKd |
| --- | --- |
| TGPWKNETTV [ADGRA1, Q86SQ6] | 4.02 |

These binders were tested against PDLIM1, O00151 (assay: holdup assay). Conditions: plain residues with an end cap or a label only (N-terminal biotin on a linker: ado-ado).
Design: key: below the threshold = too weak to quantify, mostly under pKd 3.1 to 4

Chain of PDLIM1, O00151 (O00151 1-87): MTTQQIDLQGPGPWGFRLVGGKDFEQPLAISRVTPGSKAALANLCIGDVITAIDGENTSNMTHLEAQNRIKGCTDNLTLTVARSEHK

| Binder | pKd |
| --- | --- |
| TGPWKNETTV [ADGRA1, Q86SQ6] | below the threshold |

These binders were tested against T6, PDZRN3_1, Q9UPQ7 (assay: holdup assay). Conditions: plain residues with an end cap or a label only (N-terminal biotin on a linker: ado-ado).
Design: key: below the threshold = too weak to quantify, mostly under pKd 3.1 to 4

| Binder | pKd |
| --- | --- |
| TGPWKNETTV [ADGRA1, Q86SQ6] | 4.07 |

The binders below were run against TJP1_2, Q07157 (assay: holdup assay). Conditions: plain residues with an end cap or a label only (N-terminal biotin on a linker: ado-ado).
Design: key: below the threshold = too weak to quantify, mostly under pKd 3.1 to 4

Chain of TJP1_2, Q07157 (Q07157 181-274): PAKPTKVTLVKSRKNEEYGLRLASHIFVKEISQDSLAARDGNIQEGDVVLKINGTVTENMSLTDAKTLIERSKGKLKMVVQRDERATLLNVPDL

| Binder | pKd |
| --- | --- |
| TGPWKNETTV [ADGRA1, Q86SQ6] | below the threshold |
